The values below come from article PMC7069958, “Multi-level and lineage-specific interactomes of the Hox transcription factor Ubx contribute to its functional specificity”.

For this data set, the target named is mB*UbxN51A (UniProt P83949-2 1-380, N336A). Description: EMSA; 20 mM HEPES pH 7.9, 1.4 mM MgCl2, 1 mM ZnSO4, 40 mM KCl, 0.1 mM EDTA, 5% glycerol, 0.2 ug poly(dI-dC), 0.1 ug BSA, 10 mM DTT, 0.1% NP40, 30 ul, 20 min; gel 6% acrylamide 0.5x TBE at 4 C. The note with it: protein: recombinant; tags: His, myc-BirA* (N-terminal fusion); label: 5'-Cy5; blunt. A general note: In EMSA bound probe runs differently from free probe, usually more slowly.
Sequence of mB*UbxN51A (P83949 other isoform, or with tags, fused parts or gaps N336A): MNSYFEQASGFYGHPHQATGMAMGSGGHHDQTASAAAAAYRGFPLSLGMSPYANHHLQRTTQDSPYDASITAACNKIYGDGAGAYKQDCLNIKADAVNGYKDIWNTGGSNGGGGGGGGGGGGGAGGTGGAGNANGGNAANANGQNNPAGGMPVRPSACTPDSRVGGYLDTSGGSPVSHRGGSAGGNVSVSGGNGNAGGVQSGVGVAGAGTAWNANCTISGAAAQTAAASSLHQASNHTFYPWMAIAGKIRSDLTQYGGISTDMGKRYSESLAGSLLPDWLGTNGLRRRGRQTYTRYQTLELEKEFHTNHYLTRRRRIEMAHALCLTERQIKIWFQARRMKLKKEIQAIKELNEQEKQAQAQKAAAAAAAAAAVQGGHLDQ

B1: Ubx consensus site probe (dsDNA)
DNA 1: TTCAGAGCGAATGATTTATGACCGGTCAAG
DNA 2: CTTGACCGGTCATAAATCATTCGCTCTGAA
On to B1, for which the binding result is given as “no binding”.
